B1: F-box only protein 11 (Homo sapiens), Q86XK2 (parent)
chain: MNSVRAANRRPRRVSRPRPVQQQQQQPPQQPPPQPPQQQPPQQQPPPPPQQQQQQQPPPPPPPPPPLPQERNNVGERDDDVPADMVAEESGPGAQNSPYQLRRKTLLPKRTACPTKNSMEGASTSTTENFGHRAKRARVSGKSQDLSAAPAEQYLQEKLPDEVVLKIFSYLLEQDLCRAACVCKRFSELANDPILWKRLYMEVFEYTRPMMHPEPGKFYQINPEEYEHPNPWKESFQQLYKGAHVKPGFAEHFYSNPARYKGRENMLYYDTIEDALGGVQEAHFDGLIFVHSGIYTDEWIYIESPITMIGAAPGKVADKVIIENTRDSTFVFMEGSEDAYVGYMTIRFNPDDKSAQHHNAHHCLEITVNCSPIIDHCIIRSTCTVGSAVCVSGQGACPTIKHCNISDCENVGLYITDHAQGIYEDNEISNNALAGIWVKNHGNPIIRRNHIHHGRDVGVFTFDHGMGYFESCNIHRNRIAGFEVKAYANPTVVRCEIHHGQTGGIYVHEKGRGQFIENKIYANNFAGVWITSNSDPTIRGNSIFNGNQGGVYIFGDGRGLIEGNDIYGNALAGIQIRTNSCPIVRHNKIHDGQHGGIYVHEKGQGVIEENEVYSNTLAGVWVTTGSTPVLRRNRIHSGKQVGVYFYDNGHGVLEDNDIYNHMYSGVQIRTGSNPKIRRNKIWGGQNGGILVYNSGLGCIEDNEIFDNAMAGVWIKTDSNPTLRRNKIHDGRDGGICIFNGGRGLLEENDIFRNAQAGVLISTNSHPILRKNRIFDGFAAGIEITNHATATLEGNQIFNNRFGGLFLASGVNVTMKDNKIMNNQDAIEKAVSRGQCLYKISSYTSYPMHDFYRCHTCNTTDRNAICVNCIKKCHQGHDVEFIRHDRFFCDCGAGTLSNPCTLAGEPTHDTDTLYDSAPPIESNTLQHN
B2: Rho guanine nucleotide exchange factor 3 (Homo sapiens), Q9NR81 (parent)
chain: MVAKDYPFYLTVKRANCSLELPPASGPAKDAEEPSNKRVKPLSRVTSLANLIPPVKATPLKRFSQTLQRSISFRSESRPDILAPRPWSRNAAPSSTKRRDSKLWSETFDVCVNQMLTSKEIKRQEAIFELSQGEEDLIEDLKLAKKAYHDPMLKLSIMTEQELNQIFGTLDSLIPLHEELLSQLRDVRKPDGSTEHVGPILVGWLPCLSSYDSYCSNQVAAKALLDHKKQDHRVQDFLQRCLESPFSRKLDLWNFLDIPRSRLVKYPLLLREILRHTPNDNPDQQHLEEAINIIQGIVAEINTKTGESECRYYKERLLYLEEGQKDSLIDSSRVLCCHGELKNNRGVKLHVFLFQEVLVITRAVTHNEQLCYQLYRQPIPVKDLLLEDLQDGEVRLGGSLRGAFSNNERIKNFFRVSFKNGSQSQTHSLQANDTFNKQQWLNCIRQAKETVLCAAGQAGVLDSEGSFLNPTTGSRELQGETKLEQMDQSDSESDCSMDTSEVSLDCERMEQTDSSCGNSRHGESNV
partner: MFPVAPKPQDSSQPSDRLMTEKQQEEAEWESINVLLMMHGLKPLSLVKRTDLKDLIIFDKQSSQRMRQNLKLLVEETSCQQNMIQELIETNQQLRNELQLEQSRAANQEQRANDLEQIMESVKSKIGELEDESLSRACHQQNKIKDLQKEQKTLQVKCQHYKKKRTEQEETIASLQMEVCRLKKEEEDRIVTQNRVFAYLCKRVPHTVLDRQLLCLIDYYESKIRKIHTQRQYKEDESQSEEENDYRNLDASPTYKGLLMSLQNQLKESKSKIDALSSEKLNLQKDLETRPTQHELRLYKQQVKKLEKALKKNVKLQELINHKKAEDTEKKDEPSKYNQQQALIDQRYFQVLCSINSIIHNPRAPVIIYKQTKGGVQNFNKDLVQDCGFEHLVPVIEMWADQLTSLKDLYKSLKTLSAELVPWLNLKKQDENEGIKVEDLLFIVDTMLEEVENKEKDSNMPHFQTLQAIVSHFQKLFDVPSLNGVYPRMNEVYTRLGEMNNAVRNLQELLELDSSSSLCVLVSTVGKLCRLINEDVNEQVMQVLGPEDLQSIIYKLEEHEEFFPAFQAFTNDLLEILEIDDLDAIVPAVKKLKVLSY
B3: Galectin-8 (Homo sapiens), O00214 (parent)
chain: MMLSLNNLQNIIYNPVIPFVGTIPDQLDPGTLIVIRGHVPSDADRFQVDLQNGSSMKPRADVAFHFNPRFKRAGCIVCNTLINEKWGREEITYDTPFKREKSFEIVIMVLKDKFQVAVNGKHTLLYGHRIGPEKIDTLGIYGKVNIHSIGFSFSSDLQSTQASSLELTEISRENVPKSGTPQLRLPFAARLNTPMGPGRTVVVKGEVNANAKSFNVDLLAGKSKDIALHLNPRLNIKAFVRNSFLQESWGEEERNITSFPFSPGMYFEMIIYCDVREFKVAVNGVHSLEYKHRFKELSSIDTLEINGDIHLLEVRSW
B4: RNA-binding protein 3 (Homo sapiens), P98179 (parent)
chain: MSSEEGKLFVGGLNFNTDEQALEDHFSSFGPISEVVVVKDRETQRSRGFGFITFTNPEHASVAMRAMNGESLDGRQIRVDHAGKSARGTRGGGFGAHGRGRSYSRGGGDQGYGSGRYYDSRPGGYGYGYGRSRDYNGRNQGGYDRYSGGNYRDNYDN
partner: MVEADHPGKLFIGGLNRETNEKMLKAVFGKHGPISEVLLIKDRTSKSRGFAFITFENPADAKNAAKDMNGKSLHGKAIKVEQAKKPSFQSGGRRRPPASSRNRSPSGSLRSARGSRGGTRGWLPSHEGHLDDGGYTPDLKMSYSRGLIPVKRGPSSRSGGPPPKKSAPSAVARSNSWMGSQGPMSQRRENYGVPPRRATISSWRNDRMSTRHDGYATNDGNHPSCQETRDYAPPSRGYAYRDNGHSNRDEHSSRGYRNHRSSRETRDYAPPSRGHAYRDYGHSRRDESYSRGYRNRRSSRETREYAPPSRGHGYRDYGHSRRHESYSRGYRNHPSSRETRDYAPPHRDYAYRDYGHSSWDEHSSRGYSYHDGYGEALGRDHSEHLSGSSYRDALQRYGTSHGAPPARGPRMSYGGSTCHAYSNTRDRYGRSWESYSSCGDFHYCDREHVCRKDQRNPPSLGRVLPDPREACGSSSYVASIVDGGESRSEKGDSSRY
B5: Atypical chemokine receptor 2 (Homo sapiens), O00590 (parent)
chain: MAATASPQPLATEDADSENSSFYYYDYLDEVAFMLCRKDAVVSFGKVFLPVFYSLIFVLGLSGNLLLLMVLLRYVPRRRMVEIYLLNLAISNLLFLVTLPFWGISVAWHWVFGSFLCKMVSTLYTINFYSGIFFISCMSLDKYLEIVHAQPYHRLRTRAKSLLLATIVWAVSLAVSIPDMVFVQTHENPKGVWNCHADFGGHGTIWKLFLRFQQNLLGFLLPLLAMIFFYSRIGCVLVRLRPAGQGRALKIAAALVVAFFVLWFPYNLTLFLHTLLDLQVFGNCEVSQHLDYALQVTESIAFLHCCFSPILYAFSSHRFRQYLKAFLAAVLGWHLAPGTAQASLSSCSESSILTAQEEMTGMNDLGERQSENYPNKEDVGNKSA
B6: E3 ubiquitin-protein ligase TRIM17 (Homo sapiens), Q9Y577 (parent)
chain: MEAVELARKLQEEATCSICLDYFTDPVMTTCGHNFCRACIQLSWEKARGKKGRRKRKGSFPCPECREMSPQRNLLPNRLLTKVAEMAQQHPGLQKQDLCQEHHEPLKLFCQKDQSPICVVCRESREHRLHRVLPAEEAVQGYKLKLEEDMEYLREQITRTGNLQAREEQSLAEWQGKVKERRERIVLEFEKMNLYLVEEEQRLLQALETEEEETASRLRESVACLDRQGHSLELLLLQLEERSTQGPLQMLQDMKEPLSRKNNVSVQCPEVAPPTRPRTVCRVPGQIEVLRGFLEDVVPDATSAYPYLLLYESRQRRYLGSSPEGSGFCSKDRFVAYPCAVGQTAFSSGRHYWEVGMNITGDALWALGVCRDNVSRKDRVPKCPENGFWVVQLSKGTKYLSTFSALTPVMLMEPPSHMGIFLDFEAGEVSFYSVSDGSHLHTYSQATFPGPLQPFFCLGAPKSGQMVISTVTMWVKG
partner: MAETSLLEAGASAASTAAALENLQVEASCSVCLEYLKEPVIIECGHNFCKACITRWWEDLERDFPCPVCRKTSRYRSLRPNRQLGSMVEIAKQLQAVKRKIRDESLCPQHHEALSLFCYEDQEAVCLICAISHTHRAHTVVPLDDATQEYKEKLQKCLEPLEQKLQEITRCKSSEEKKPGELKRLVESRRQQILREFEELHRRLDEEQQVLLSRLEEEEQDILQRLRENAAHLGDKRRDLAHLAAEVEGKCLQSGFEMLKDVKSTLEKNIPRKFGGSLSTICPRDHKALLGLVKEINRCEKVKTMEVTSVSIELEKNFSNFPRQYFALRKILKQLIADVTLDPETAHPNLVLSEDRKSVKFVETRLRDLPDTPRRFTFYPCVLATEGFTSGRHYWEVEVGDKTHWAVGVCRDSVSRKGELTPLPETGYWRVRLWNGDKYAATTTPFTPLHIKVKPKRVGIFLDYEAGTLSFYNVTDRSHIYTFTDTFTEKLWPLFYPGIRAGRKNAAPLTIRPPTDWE
B7: Galectin-8 (Homo sapiens), O00214 (parent)
chain: B3 chain
partner: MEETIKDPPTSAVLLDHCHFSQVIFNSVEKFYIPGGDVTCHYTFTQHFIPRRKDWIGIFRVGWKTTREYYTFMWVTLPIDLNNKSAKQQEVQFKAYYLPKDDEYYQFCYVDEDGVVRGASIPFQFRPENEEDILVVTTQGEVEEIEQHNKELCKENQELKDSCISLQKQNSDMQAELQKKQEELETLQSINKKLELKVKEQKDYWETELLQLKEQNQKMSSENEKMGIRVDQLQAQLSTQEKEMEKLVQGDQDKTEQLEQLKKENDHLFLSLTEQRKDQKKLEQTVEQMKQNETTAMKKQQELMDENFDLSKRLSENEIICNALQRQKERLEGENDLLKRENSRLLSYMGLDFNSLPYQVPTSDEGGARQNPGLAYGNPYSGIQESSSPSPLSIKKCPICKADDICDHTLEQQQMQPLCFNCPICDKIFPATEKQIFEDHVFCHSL
B8: E3 ubiquitin-protein ligase DZIP3 (Homo sapiens), Q86Y13 (parent)
chain: MDSLPDEFFVRHPAVEDQRKEETENKLEKSSGQLNKQENDIPTDLVPVNLLLEVKKLLNAINTLPKGVVPHIKKFLQEDFSFQTMQREVAANSQNGEEIVPALTLRFLITQLEAALRNIQAGNYTAHQINIGYYLTLLFLYGVALTERGKKEDYTEAENKFLVMKMMIQENEICENFMSLVYFGRGLLRCAQKRYNGGLLEFHKSLQEIGDKNDHWFDIDPTEDEDLPTTFKDLLNNFIKTTESNIMKQTICSYLDCERSCEADILKNTSYKGFFQLMCSKSCCVYFHKICWKKFKNLKYPGENDQSFSGKKCLKEGCTGDMVRMLQCDVPGIVKILFEVVRKDEYITIENLGASYRKLISLKITDTDIRPKISLKFNTKDEMPIFKLDYNYFYHLLHIIIISGTDIVRQIFDEAMPPPLLKKELLIHKNVLESYYNHLWTNHPLGGSWHLLYPPNKELPQSKQFDLCLLLALIKHLNVFPAPKKGWNMEPPSSDISKSADILRLCKYRDILLSEILMNGLTESQFNSIWKKVSDILLRLGMMQEDIDKVKENPIENISLDYHQLSVYLGIPVPEIIQRMLSCYQQGIALQSITGSQRIEIEELQNEEEELSPPLMEYNINVKSHPEIQFAEINKDGTSIPSESSTESLKDLQEVKSKQRKKKKTKNKKNKDSKEDQVPYVVEKEEQLRKEQANPHSVSRLIKDDASDVQEDSAMEDKFYSLDELHILDMIEQGSAGKVTTDYGETEKERLARQRQLYKLHYQCEDFKRQLRTVTFRWQENQMQIKKKDKIIASLNQQVAFGINKVSKLQRQIHAKDNEIKNLKEQLSMKRSQWEMEKHNLESTMKTYVSKLNAETSRALTAEVYFLQCRRDFGLLHLEQTEKECLNQLARVTHMAASNLESLQLKAAVDSWNAIVADVRNKIAFLRTQYNEQINKVKQGFALSTLPPVQLPPPPPSPEILMQQFLGRPLVKESFFRPILTVPQMPAVCPGVVSATGQPRAPLMTGIAWALPAPVGDAVPPSAGLRSDPSIMNWERITDRLKTAFPQQTRKELTDFLRKLKDAYGKSLSELTFDEIVCKISQFIDPKKSQSQGKSVSNVNCVSPSHSPSQPDAAQPPKPAWRPLTSQGPATWEGASNPDEEEEEEEPCVICHENLSPENLSVLPCAHKFHAQCIRPWLMQQGTCPTCRLHVLLPEEFPGHPSRQLPKI

Variants of: B1
Settings: with skp1_human SKP1, P63208
Sequence of skp1_human SKP1, P63208 (P63208 whole entry): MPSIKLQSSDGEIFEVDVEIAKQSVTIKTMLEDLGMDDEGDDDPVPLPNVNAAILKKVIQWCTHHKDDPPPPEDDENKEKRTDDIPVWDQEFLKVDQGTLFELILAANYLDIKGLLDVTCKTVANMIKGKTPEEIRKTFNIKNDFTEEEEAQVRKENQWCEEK

effect of a mutation on the interaction | Variant
with no effect | Y692F

Variants of: B2
Settings: with cep70_human CEP70, Q8NHQ1

effect of a mutation on the interaction | Variant
with no effect | P34S

Variants of: B3
Settings: with taxb1_human TAX1BP1, Q86VP1
Sequence of taxb1_human TAX1BP1, Q86VP1 (Q86VP1 whole entry): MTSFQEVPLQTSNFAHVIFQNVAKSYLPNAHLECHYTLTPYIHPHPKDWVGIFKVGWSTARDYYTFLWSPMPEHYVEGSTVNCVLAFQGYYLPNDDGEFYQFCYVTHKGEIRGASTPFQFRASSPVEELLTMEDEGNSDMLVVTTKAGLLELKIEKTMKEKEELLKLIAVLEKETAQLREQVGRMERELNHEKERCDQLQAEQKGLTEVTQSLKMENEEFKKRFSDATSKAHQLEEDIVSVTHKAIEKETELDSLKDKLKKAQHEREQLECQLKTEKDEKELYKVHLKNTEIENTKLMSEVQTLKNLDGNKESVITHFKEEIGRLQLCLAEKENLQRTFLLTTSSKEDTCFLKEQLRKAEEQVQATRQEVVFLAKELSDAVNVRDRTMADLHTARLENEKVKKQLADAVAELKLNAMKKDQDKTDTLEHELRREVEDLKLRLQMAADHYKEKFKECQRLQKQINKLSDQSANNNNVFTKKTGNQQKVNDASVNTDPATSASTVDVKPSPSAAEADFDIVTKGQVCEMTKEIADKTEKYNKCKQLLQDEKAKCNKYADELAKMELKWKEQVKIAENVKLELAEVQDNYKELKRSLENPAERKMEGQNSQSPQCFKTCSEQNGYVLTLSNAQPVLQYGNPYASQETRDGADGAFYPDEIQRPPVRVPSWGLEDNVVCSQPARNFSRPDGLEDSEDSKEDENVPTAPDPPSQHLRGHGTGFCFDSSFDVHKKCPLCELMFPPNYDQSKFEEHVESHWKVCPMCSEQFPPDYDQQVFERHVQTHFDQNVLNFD

effect of a mutation on the interaction | Variant
with no effect | P194T

Variants of: B4
Settings: with rby1a_human RBMY1A1, P0DJD3

effect of a mutation on the interaction | Variant
with no effect | R145H

Variants of: B5
Settings: with creb3_human CREB3, O43889
Sequence of creb3_human CREB3, O43889 (O43889 whole entry): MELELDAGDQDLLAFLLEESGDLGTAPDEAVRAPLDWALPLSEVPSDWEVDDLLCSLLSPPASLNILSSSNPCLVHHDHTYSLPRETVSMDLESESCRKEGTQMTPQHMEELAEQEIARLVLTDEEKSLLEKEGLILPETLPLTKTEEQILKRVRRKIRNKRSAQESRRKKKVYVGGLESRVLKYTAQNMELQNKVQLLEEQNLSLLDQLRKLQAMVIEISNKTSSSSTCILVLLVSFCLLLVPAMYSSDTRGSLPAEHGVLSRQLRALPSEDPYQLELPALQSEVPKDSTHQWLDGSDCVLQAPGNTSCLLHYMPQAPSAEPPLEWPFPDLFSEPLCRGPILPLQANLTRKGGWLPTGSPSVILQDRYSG

effect of a mutation on the interaction | Variant
with no effect | V42M

Variants of: B6
Settings: with tri39_human TRIM39, Q9HCM9

effect of a mutation on the interaction | Variant
with no effect | R159T

Variants of: B7
Settings: with caco2_human CALCOCO2, Q13137

effect of a mutation on the interaction | Variant
with no effect | P194T

Variants of: B8
Settings: with ub2e2_human UBE2E2, Q96LR5
Sequence of ub2e2_human UBE2E2, Q96LR5 (Q96LR5 whole entry): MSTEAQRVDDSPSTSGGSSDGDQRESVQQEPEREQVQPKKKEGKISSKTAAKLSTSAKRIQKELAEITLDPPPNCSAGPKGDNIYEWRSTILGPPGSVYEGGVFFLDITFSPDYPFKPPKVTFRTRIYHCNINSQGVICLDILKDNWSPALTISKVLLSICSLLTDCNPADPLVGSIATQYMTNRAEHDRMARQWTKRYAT

effect of a mutation on the interaction | Variant
disrupting interaction strength | M1032R

Variants of: B8
Settings: with znf24_human ZNF24, P17028
Sequence of znf24_human ZNF24, P17028 (P17028 whole entry): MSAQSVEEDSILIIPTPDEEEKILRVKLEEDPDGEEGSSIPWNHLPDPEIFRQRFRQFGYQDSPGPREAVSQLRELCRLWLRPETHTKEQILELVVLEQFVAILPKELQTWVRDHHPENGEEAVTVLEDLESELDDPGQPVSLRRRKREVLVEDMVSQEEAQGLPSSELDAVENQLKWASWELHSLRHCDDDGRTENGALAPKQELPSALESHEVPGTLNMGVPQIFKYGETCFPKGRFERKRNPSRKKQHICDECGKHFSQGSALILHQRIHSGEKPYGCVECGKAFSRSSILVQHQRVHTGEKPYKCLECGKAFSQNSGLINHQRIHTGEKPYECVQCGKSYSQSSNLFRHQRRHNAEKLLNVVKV

effect of a mutation on the interaction | Variant
disrupting interaction strength | M1032R

Variants of: B8
Settings: with hnrl1_human HNRNPUL1, Q9BUJ2
Sequence of hnrl1_human HNRNPUL1, Q9BUJ2 (Q9BUJ2 whole entry): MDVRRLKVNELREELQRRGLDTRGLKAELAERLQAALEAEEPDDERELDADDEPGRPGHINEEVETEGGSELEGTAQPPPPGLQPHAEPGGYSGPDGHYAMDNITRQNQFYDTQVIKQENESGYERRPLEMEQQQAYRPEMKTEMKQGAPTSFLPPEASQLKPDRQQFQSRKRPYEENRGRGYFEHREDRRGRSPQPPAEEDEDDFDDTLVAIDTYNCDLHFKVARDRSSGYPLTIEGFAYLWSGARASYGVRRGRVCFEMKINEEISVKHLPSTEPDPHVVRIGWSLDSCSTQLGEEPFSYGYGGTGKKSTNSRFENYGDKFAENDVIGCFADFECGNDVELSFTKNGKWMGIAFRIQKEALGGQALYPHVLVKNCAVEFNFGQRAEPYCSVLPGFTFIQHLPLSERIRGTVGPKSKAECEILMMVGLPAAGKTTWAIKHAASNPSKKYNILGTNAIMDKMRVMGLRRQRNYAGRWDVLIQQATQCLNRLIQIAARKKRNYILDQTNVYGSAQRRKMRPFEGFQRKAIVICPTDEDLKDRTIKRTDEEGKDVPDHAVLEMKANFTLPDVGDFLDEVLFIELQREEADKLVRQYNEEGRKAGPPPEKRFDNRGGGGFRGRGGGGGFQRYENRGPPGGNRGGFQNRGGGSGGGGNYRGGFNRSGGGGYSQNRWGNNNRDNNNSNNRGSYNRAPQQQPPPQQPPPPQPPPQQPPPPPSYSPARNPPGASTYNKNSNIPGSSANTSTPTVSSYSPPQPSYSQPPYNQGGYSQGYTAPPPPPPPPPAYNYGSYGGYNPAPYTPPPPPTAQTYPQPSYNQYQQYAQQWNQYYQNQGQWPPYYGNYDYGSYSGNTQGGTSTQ

effect of a mutation on the interaction | Variant
with no effect | M1032R

Variants of: B8
Settings: with zch10_human ZCCHC10, Q8TBK6
Sequence of zch10_human ZCCHC10, Q8TBK6 (Q8TBK6 whole entry): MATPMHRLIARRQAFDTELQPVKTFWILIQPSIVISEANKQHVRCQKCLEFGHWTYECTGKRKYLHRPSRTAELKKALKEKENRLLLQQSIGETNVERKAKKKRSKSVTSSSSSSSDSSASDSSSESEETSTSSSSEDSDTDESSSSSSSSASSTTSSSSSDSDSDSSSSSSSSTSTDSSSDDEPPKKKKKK

effect of a mutation on the interaction | Variant
disrupting interaction strength | M1032R
